From paper PMC10491619

Molecular target: Exchange Protein Activated by cAMP 1, purified recombinant wild type
Test: phase separation measured by centrifugation and A280 of the cleared supernatant; purified protein alone, with 30 uM cAMP; 5-25 uM protein at 50-250 mM NaCl, 25 mM Tris-HCl pH 8.8, 5 mM MgCl2; 20 °C, 15 min; 16,900 x g, 30 min

Exchange Protein Activated by cAMP 1, purified recombinant wild type, sequence (O95398 whole entry): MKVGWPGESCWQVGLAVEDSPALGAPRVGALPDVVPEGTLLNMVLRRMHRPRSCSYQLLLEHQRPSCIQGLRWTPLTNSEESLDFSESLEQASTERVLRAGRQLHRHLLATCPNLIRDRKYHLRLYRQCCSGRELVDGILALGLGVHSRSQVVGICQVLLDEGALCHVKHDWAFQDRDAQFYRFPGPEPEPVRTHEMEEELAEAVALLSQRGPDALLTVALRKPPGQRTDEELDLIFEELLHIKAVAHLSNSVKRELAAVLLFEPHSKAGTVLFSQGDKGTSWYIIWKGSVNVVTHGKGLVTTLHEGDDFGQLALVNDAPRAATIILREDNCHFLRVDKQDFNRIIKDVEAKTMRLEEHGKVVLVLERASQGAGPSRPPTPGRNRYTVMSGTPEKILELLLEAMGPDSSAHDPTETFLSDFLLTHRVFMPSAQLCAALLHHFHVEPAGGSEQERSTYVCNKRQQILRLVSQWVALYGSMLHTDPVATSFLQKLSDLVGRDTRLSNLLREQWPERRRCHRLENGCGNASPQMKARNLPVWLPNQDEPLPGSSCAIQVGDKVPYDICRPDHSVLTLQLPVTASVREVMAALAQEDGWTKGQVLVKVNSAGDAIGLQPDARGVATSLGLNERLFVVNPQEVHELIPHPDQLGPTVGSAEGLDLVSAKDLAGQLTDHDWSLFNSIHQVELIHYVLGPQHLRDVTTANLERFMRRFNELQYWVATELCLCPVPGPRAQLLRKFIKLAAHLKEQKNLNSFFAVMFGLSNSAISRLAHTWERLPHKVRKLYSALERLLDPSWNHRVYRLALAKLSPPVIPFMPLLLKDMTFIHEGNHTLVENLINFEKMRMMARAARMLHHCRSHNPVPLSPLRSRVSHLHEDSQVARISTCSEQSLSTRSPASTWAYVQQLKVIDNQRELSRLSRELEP

condensation ratio +cAMP/-cAMP at 150 mM salt: 2.5 | percent of protein in condensates (150 mM salt, with cAMP): 50%
Substance: Exchange Protein Activated by cAMP 1, purified recombinant wild type (natural protein)
